Target: T1, FLAG-tagged p61 BRAF(V600E/R509H) (Homo sapiens, UniProt P15056 1-168; P15056 381-766)
T1 construct: domain: exons 1-3;domain: exons 9-18; Expressed in 293H cells; also called dimerization-deficient mutant; not shown: FLAG tag
Assay: co-immunoprecipitation of Flag- and V5-tagged forms from 293H cell lysate (FIG. 2C)
Protocol: FIG. 2C. To compare levels of dimerization, 293H cells co-expressing FLAG tagged and c-terminal V5-tagged p61BRAF(V600E), full length BRAF(V600E) and the corresponding dimerization-deficient mutants p61 BRAF(V600E/R509H) and BRAF(V600E/R509H) were lysed followed by immunoprecipitation with FLAG antibody. Western blots with V5 or FLAG antibodies were performed as indicated.
The inventors of the present invention then determined whether deletion of exons 4-8 promoted dimerization of p61 BRAF(V600E). To determine levels of dimerization, the inventors ectopically co-expressed two constructs encoding the same protein; either p61 BRAF(V600E) or full-length BRAF(V600E) with different tags (Flag or V5).

B1: V5-tagged p61 BRAF(V600E/R509H) (enzyme, Homo sapiens, UniProt P15056 1-168, looked up)
chain: MAALSGGGGGGAEPGQALFNGDMEPEAGAGAGAAASSAADPAIPEEVWNIKQMIKLTQEHIEALLDKFGGEHNPPSIYLEAYEEYTSKLDALQQREQQLLESLGNGTDFSVSSSASMDTVTSSSSSSLSVLPSSLSVFQNPTDVARSNPKSPQKPIVRVFLPNKQRTVDLIRDQGFRGDGGSTTGLSATPPASLPGSLTNVKALQKSPGPQRERKSSSSSEDRNRMKTLGRRDSSDDWEIPDGQITVGQRIGSGSFGTVYKGKWHGDVAVKMLNVTAPTPQQLQAFKNEVGVLRKTHHVNILLFMGYSTKPQLAIVTQWCEGSSLYHHLHIIETKFEMIKLIDIARQTAQGMDYLHAKSIIHRDLKSNNIFLHEDLTVKIGDFGLATEKSRWSGSHQFEQLSGSILWMAPEVIRMQDKNPYSFQSDVYAFGIVLYELMTGQLPYSNINNRDQIIFMVGRGYLSPDLSKVRSNCPKAMKRLMAECLKKKRDERPLFPQILASIELLARSLPKIHRSASEPSLNRAGFQTEDFSLYACASPKTPIQAGGYGAFPVH
notes: domain: exons 1-3;domain: exons 9-18; Expressed in 293H cells; also called dimerization-deficient mutant; not shown: V5 tag at the C-terminus
  binding result: no binding

Source: patent US20120301878A1 (Memorial Sloan Kettering, published 2012)
